Where two headings read alike, the source gives them in different places.
B1: huAbF46-H4-U7-HC6 (antibody)
heavy: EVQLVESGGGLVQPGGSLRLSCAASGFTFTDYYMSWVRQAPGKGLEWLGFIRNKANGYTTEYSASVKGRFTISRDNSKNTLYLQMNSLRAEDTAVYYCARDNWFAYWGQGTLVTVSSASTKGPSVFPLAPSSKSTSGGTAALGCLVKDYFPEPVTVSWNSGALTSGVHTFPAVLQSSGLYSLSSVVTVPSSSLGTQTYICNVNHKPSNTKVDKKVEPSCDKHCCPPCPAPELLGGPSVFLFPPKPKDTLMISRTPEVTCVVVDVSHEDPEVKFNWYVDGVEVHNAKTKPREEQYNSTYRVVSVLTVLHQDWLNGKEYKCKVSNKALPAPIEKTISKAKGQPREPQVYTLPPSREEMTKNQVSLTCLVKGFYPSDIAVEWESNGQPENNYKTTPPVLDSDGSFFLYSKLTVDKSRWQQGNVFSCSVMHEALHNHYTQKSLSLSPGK
light: DIQMTQSPSSLSASVGDRVTITCKSSQSLLASGNQNNYLAWHQQKPGKAPKMLIIWASTRVSGVPSRFSGSGSGTDFTLTISSLQPEDFATYYCQQSYSAPLTFGQGTKVEIKRTVAAPSVFIFPPSDEQLKSGTASVVCLLNNFYPREAKVQWKVDNALQSGNSQESVTEQDSKDSTYSLSSTLTLSKADYEKHKVYACEVTHQGLSSPVTKSFNRGEC
B2: chimeric antibody chAbF46 (antibody, human IgG1)
heavy: not shown
light: DILMTQSPSSLTVSAGEKVTMSCKSSQSLLASGNQNNYLAWHQQKPGRSPKMLIIWASTRVSGVPDRFIGSGSGTDFTLTINSVQAEDLAVYYCQQSYSAPLTFGAGTKLELKRTVAAPSVFIFPPSDEQLKSGTASVVCLLNNFYPREAKVQWKVDNALQSGNSQESVTEQDSKDSTYSLSSTLTLSKADYEKHKVYACEVTHQGLSSPVTKSFNRGEC
notes: Mouse AbF46 variable regions on human IgG1 constant regions
B3: chAbF46-U6-HC8 (antibody, human IgG1)
heavy: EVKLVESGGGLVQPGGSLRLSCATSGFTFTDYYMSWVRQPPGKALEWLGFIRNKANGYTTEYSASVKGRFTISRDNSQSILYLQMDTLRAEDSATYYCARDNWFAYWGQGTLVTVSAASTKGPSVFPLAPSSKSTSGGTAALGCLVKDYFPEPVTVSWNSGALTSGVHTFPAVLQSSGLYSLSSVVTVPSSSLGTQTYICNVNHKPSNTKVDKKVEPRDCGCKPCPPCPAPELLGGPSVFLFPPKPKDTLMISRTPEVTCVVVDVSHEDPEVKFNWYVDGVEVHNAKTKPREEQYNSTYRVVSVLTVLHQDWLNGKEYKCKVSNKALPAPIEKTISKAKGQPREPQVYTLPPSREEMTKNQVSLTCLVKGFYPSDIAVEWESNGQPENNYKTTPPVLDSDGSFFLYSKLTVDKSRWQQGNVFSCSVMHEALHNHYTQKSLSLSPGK
light: B2 light
B4: chAbF46-U7-HC6 (antibody, human IgG1)
heavy: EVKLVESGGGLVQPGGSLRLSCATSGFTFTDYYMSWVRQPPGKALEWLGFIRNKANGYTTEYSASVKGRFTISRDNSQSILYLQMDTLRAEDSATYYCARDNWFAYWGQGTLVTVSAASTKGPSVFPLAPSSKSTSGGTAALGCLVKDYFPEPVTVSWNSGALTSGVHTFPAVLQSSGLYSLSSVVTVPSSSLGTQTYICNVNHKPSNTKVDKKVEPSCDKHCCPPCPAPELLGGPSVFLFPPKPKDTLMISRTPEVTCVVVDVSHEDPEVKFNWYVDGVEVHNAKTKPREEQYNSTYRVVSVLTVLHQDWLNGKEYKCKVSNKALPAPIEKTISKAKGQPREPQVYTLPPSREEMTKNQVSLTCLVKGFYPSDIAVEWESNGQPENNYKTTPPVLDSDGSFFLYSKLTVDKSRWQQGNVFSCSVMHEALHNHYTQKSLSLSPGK
light: B2 light
B5: chAbF46-U3-HC9 (antibody, human IgG1)
heavy: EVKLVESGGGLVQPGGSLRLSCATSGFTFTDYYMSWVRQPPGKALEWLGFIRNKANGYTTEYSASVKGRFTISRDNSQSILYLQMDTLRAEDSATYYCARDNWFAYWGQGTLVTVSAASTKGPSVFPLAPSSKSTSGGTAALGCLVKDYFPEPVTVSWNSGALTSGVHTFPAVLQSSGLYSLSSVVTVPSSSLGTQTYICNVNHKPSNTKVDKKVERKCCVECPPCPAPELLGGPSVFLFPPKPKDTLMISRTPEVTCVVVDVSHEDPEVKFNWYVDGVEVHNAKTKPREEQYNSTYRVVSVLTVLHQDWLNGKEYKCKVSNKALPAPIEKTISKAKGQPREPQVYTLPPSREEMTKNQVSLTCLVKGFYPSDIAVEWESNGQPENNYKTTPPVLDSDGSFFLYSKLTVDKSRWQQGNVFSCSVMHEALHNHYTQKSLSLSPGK
light: B2 light
B6: chAbF46-U8-HC5 (antibody, human IgG1)
heavy: not shown
light: B2 light
B7: chAbF46-U6-HC7 (antibody, human IgG1)
heavy: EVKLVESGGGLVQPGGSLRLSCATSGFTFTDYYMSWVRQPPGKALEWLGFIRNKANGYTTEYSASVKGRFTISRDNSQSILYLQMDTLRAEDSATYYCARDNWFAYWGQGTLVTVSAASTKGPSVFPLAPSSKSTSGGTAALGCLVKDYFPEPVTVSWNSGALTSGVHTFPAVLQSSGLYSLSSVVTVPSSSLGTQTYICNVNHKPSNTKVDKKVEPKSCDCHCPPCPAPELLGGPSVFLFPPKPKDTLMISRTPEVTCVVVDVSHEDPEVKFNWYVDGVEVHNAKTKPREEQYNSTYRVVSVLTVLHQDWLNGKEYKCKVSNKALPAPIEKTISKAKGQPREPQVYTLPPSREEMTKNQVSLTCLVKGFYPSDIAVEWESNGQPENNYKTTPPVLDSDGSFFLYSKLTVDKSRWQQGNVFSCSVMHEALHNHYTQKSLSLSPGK
light: B2 light
B8: humanized antibody huAbF46-H1 (antibody, human IgG1, kappa, V domains shown)
VH: EVQLVESGGGLVQPGGSLRLSCAASGFTFTDYYMSWVRQAPGKGLEWLGFIRNKANGYTTEYSASVKGRFTISRDNSKNSLYLQMNSLKTEDTAVYYCARDNWFAYWGQGTLVTVSS
VL: DIVMTQSPDSLAVSLGERATINCKSSQSLLASGNQNNYLAWHQQKPGQPPKMLIIWASTRVSGVPDRFSGSGSGTDFTLTISSLQAEDVAVYYCQQSYSAPLTFGGGTKVEIKR
notes: also called hAbF46-H1
B9: humanized antibody huAbF46-H4 (antibody, human IgG1, kappa)
heavy: not shown
light: DIQMTQSPSSLSASVGDRVTITCKSSQSLLASGNQNNYLAWHQQKPGKAPKMLIIWASTRVSGVPSRFSGSGSGTDFTLTISSLQPEDFATYYCQQSYSAPLTFGQGTKVEIKRTVAAPSVFIFPPSDEQLKSGTASVVCLLNNFYPREAKVQWKVDNALQSGNSQESVTEQDSKDSTYSLSSTLTLSKADYEKHKVYACEVTHQGLSSPVTKSFNRGE
notes: also called hAbF46-H4

What was measured:
Test in all cases: SPR (printed 'Biocare'), antibody immobilised on CM5 chip, c-Met injected at 100-0.39 nM
[1] = target: T1, human c-Met protein (R&D Systems) (human, UniProt P08581 25-932, limits assumed)
T1 construct: also called antigen
Experimental: (§1) Each of antibodies shown in Table 4 was immobilized to about 80˜110 RU on a CM5 chip. The c-Met protein was injected at nine different concentrations within a range of about 100 nM to about 0.39 nM at a rate of 30 μl/min to obtain kₒₙ and koff values as illustrated in Table 4. KD values were calculated from the kₒₙ and koff values.

[2] = target: T1, human c-Met protein (R&D Systems); remark: listed apart in the source
Experimental: as §1, with “antibodies” for “antibodies shown in Table 4”, “chip, and the” for “chip. The”, “protein (which is an antigen)” for “protein”, “2.” for “4.”

[3] = target: T1, human c-Met protein (R&D Systems); remark: listed apart in the source
Experimental: as §1, with “antibodies” for “antibodies shown in Table 4”, “80-110” for “80˜110”, “chip, and the” for “chip. The”, “3.” for “4.”

T1 sequence (P08581 25-932 limits assumed): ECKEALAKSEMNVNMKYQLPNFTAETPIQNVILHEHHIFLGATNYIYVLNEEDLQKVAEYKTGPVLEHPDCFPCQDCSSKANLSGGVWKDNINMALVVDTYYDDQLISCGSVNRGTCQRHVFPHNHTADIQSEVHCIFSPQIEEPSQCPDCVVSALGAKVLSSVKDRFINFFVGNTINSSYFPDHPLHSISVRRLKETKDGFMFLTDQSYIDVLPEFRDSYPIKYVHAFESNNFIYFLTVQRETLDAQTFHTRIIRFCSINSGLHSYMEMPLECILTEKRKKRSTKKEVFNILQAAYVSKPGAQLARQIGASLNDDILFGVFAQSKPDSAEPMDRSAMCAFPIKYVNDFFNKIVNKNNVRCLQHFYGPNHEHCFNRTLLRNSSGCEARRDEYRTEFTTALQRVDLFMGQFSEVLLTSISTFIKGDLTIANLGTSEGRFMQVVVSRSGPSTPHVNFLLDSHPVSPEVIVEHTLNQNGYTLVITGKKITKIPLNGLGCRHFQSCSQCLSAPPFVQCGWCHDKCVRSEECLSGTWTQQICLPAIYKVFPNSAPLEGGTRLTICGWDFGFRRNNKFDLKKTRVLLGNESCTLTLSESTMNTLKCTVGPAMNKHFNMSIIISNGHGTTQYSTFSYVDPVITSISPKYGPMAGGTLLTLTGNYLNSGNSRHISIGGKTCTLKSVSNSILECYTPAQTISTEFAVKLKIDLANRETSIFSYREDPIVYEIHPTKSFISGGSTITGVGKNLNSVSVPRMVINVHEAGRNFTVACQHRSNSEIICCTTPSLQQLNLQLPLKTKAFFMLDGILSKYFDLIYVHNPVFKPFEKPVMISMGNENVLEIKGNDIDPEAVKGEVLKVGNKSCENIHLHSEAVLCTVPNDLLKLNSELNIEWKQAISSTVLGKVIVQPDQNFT

Binder	Kd [1]	koff [1]	kon [1]	Kd [2]	koff [2]	kon [2]	Kd [3]	koff [3]	kon [3]
B1	3.74 nM	0.000981 s⁻¹	263000 M⁻¹ s⁻¹	–	–	–	–	–	–
B2	–	–	–	1.01 to 1.42 nM	0.000367 s⁻¹	363000 M⁻¹ s⁻¹	1.01 nM	0.000367 s⁻¹	363000 M⁻¹ s⁻¹
B3	–	–	–	–	–	–	1.34 nM	0.000626 s⁻¹	469000 M⁻¹ s⁻¹
B4	–	–	–	–	–	–	1.66 nM	0.000862 s⁻¹	518000 M⁻¹ s⁻¹
B5	–	–	–	–	–	–	1.38 nM	0.000554 s⁻¹	400000 M⁻¹ s⁻¹
B6	–	–	–	–	–	–	1.32 nM	0.000678 s⁻¹	515000 M⁻¹ s⁻¹
B7	–	–	–	–	–	–	1.63 nM	0.000614 s⁻¹	376000 M⁻¹ s⁻¹
B8	1.89 nM	0.000655 s⁻¹	346000 M⁻¹ s⁻¹	1.89 to 1.97 nM	0.000655 s⁻¹	346000 M⁻¹ s⁻¹	–	–	–
B9	2.39 nM	0.000802 s⁻¹	336000 M⁻¹ s⁻¹	2.05 to 2.39 nM	0.000696 s⁻¹	339000 M⁻¹ s⁻¹	–	–	–

— US20130089556A1 (SAMSUNG ELECTRONICS, published 2013)
